Tests used:
[1] = biological target: T1, B-cell maturation antigen (BCMA) (human, UniProt Q02223 1-184); assay: flow cytometry on KMS12-PE cells, 100 ug/mL, incubation times as labelled, anti-human IgG secondary antibody
T1 construct: This is endogenous BCMA on human myeloma cell lines (KMS12-PE low, MM.1R high expression); the whole entry is used; also called surface BCMA
T1 sequence: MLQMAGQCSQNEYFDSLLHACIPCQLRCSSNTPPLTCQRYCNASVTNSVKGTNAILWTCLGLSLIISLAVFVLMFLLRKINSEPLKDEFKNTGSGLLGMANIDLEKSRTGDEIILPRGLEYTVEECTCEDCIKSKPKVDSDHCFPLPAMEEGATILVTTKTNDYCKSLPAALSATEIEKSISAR
Description: KMS12-PE or MM.1R cells were incubated with an anti-BCMA monoclonal antibody (MAB42), bivalent TriNKET (NKG2D-binding-F4-TriNKET-BCMA), or monovalent TriNKET (A49-DB-TriNKET-BCMA). A49-DB-TriNKET-BCMA is a TriNKET in which the first antigen-binding site comprises an Fab that binds NKG2D and the second antigen-binding site comprises an Fab that binds BCMA, each connected to an Fc domain, forming a bi-valent antibody (WO2018/148566).
To assess total surface BCMA, a saturating concentration of 100 μg/mL was used, whereas 100 ng/mL was selected to investigate sub-saturation surface stabilization. Each sample was divided into thirds, with an aliquot each placed on ice for 20 minutes, at 37° C. for 2 hours or 37° C. for 24 hours. After the incubation period cells were washed and bound TriNKET was detected using an anti-human IgG secondary antibody. After staining the cells were fixed and stored at 4° C., all samples were analyzed at the end of the study.

[2] = biological target: T2, NKG2D (human, UniProt P26718 1-216); assay: flow cytometry on KHYG-1 parental (CD16-) cells expressing NKG2D, anti-human IgG secondary antibody, MFI
T2 construct: whole, on cells; also called NKG2D receptor
T2 sequence (looked up): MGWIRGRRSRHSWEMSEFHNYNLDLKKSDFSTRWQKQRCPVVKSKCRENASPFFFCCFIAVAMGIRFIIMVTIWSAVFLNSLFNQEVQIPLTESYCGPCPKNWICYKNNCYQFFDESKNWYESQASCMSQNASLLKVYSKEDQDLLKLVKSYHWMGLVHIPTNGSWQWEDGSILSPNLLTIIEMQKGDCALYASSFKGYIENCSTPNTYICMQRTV
Description: (§1) The KHYG-1 human NK cell line was used to assess NKG2D binding of TriNKET NKG2D-binding-F4-TriNKET-BCMA. KHYG-1 cells transduced to express CD16-F158V were used to investigate the contribution of Fc CD16 binding. TriNKETs were diluted, and were incubated with KHYG-1 cells. Binding of the TriNKET was detected using a fluorophore conjugated anti-human IgG secondary antibody. Cells were analyzed by flow cytometry and Median Fluorescence Intensity (“MFI”) reported.

[3] = biological target: T3, CD16-F158V (UniProt P08637 17-254); assay: flow cytometry on KHYG-1 cells transduced with CD16-F158V (the cells also express NKG2D), anti-human IgG secondary antibody, MFI
T3 construct: whole, on cells; It is probably the mature protein, so it may not match the position on the precursor entry; The KHYG-1 cells also express NKG2D
Description: as §1

T3 sequence (P08637 17-254 F176V): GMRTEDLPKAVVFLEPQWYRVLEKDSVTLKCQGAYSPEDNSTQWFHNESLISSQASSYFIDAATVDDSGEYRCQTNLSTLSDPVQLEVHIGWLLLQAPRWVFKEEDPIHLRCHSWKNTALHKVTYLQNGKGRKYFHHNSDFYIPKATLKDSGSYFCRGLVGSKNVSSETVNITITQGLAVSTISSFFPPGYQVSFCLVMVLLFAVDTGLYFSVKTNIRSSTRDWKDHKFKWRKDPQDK

B1: anti-BCMA monoclonal antibody MAB42 (antibody, V domains shown)
VH: EVQLLESGGGLVQPGGSLRLSCAASGFTFSDNAMGWVRQAPGKGLEWVSAISGPGSSTYYADSVKGRFTISRDNSKNTLYLQMNSLRAEDTAVYYCAKVLGWFDYWGQGTLVTVSS
VL: EIVLTQSPGTLSLSPGERATLSCRASQSVSDEYLSWYQQKPGQAPRLLIHSASTRATGIPDRFSGSGSGTDFTLAISRLEPEDFAVYYCQQYGYPPDFTFGQGTKVEIK
notes: also called anti-BCMA mAb; BCMA mAb
B1: binds [1]; no binding (tested: 100 ug/ml) [2]; binds [3].

B2: NKG2D-binding-F4-TriNKET-BCMA (bispecific antibody, human IgG1, kappa)
heavy 1: EVQLLESGGGLVQPGGSLRLSCAASGFTFSDNAMGWVRQAPGKGLEWVSAISGPGSSTYYADSVKGRFTISRDNSKNTLYLQMNSLRAEDTAVYYCAKVLGWFDYWGQGTLVTVSSASTKGPSVFPLAPSSKSTSGGTAALGCLVKDYFPEPVTVSWNSGALTSGVHTFPAVLQSSGLYSLSSVVTVPSSSLGTQTYICNVNHKPSNTKVDKKVEPKSCDKTHTCPPCPAPELLGGPSVFLFPPKPKDTLMISRTPEVTCVVVDVSHEDPEVKFNWYVDGVEVHNAKTKPREEQYNSTYRVVSVLTVLHQDWLNGKEYKCKVSNKALPAPIEKTISKAKGQPREPRVYTLPPCRDELTKNQVSLTCLVKGFYPSDIAVEWESNGQPENNYKTTPPVLVSDGSFTLYSKLTVDKSRWQQGNVFSCSVMHEALHNHYTQKSLSLSPGSGSGGGGSDIQMTQSPSSVSASVGDRVTITCRASQGISSWLAWYQQKPGKAPKLLIYAASSLQSGVPSRFSGSGSGTDFTLTISSLQPEDFATYYCQQGVSFPRTFGCGTKVEIKGGGGSGGGGSGGGGSGGGGSEVQLVESGGGLVKPGGSLRLSCAASGFTFSSYSMNWVRQAPGKCLEWVSSISSSSSYIYYADSVKGRFTISRDNAKNSLYLQMNSLRAEDTAVYYCARGAPMGAAAGWFDPWGQGTLVTVSS
heavy 2: EVQLLESGGGLVQPGGSLRLSCAASGFTFSDNAMGWVRQAPGKGLEWVSAISGPGSSTYYADSVKGRFTISRDNSKNTLYLQMNSLRAEDTAVYYCAKVLGWFDYWGQGTLVTVSSASTKGPSVFPLAPSSKSTSGGTAALGCLVKDYFPEPVTVSWNSGALTSGVHTFPAVLQSSGLYSLSSVVTVPSSSLGTQTYICNVNHKPSNTKVDKKVEPKSCDKTHTCPPCPAPELLGGPSVFLFPPKPKDTLMISRTPEVTCVVVDVSHEDPEVKFNWYVDGVEVHNAKTKPREEQYNSTYRVVSVLTVLHQDWLNGKEYKCKVSNKALPAPIEKTISKAKGQPREPQVCTLPPSRDELTENQVSLTCLVKGFYPSDIAVEWESNGQPENNYKTTPPVLDSDGSFFLYSWLTVDKSRWQQGNVFSCSVMHEALHNHYTQKSLSLSPG
light: EIVLTQSPGTLSLSPGERATLSCRASQSVSDEYLSWYQQKPGQAPRLLIHSASTRATGIPDRFSGSGSGTDFTLAISRLEPEDFAVYYCQQYGYPPDFTFGQGTKVEIKRTVAAPSVFIFPPSDEQLKSGTASVVCLLNNFYPREAKVQWKVDNALQSGNSQESVTEQDSKDSTYSLSSTLTLSKADYEKHKVYACEVTHQGLSSPVTKSFNRGEC
notes: An A49 anti-NKG2D scFv sits at the C-terminus of one Fc chain; also called A49-F4-TriNKET-BCMA; NKG2D-F4-TriNKET-BCMA
B2: binds [1]; binds [3].
